Test system: K4 kissing-loop RNA reporter
Assay: apparent KD of K4 kissing-loop reporter; higher = weaker reporter binding
Conditions: Eterna round: R107
Description: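 RNA-MaP round R107: designed RNA switches with theophylline, tryptophan, arginine or FMN aptamers are transcribed on-chip within common flanks. They are titrated with a labelled K4 kissing-loop RNA reporter in RNA-MaP buffer (100 mM Tris pH 7.5, 80 mM KCl, 4 mM MgCl2), without ligand or with the indicated ligand. Median apparent KD per design.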

[1] = input ligand: theophylline 20 uM
[2] = input ligand: tryptophan 2.4 mM
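Note: bound reporter read as fluorescence of individual clusters on recovered sequencing chips by microscopy, with normalized cluster intensities fitted with a binding model.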

| Sequence | apparent KD of K4 kissing-loop reporter (input ligand: FMN 200 uM) [nM] | apparent KD of K4 kissing-loop reporter (input ligand: arginine 13.2 mM) [nM] | apparent KD of K4 kissing-loop reporter (input ligand: none) [nM] | apparent KD of K4 kissing-loop reporter [1] [nM] | apparent KD of K4 kissing-loop reporter [2] [nM] |
| --- | --- | --- | --- | --- | --- |
| AAAUUCUUUUUUUUAUAUAACGAUUCAGAAGGAGCGAGGUAGAACUCAGGUAGGUCGCUGAAUAUAAGACUAGUGAUGUUAGUAA [#01 K4 Arginine A Same State] | 175 | 193 | 224 | 238 | 156 |
| AAAUUGUUUAGAGGAUAUUCUUUAUUCGACAUAACCUUCUAUAAGGUGCAGUGAUGUUGCAAUAUAGGAGAAGGCUGAGCGAUAA [Exclusion FMN B Gf 14] | 311 | 177 | 217 | 196 | 178 |
| AACACUCUGGGAGUGAUGUUCUCAAAUAACCGAGGACCGGUACGGCCGCCACUCGGAAAAGAGUGAGUCCUACGAAAAGUAGGAC [Omei inspired 3] | 225 | 258 | 235 | 264 | 152 |
| AACGCUCAAUAGAGAGUGAUGUUCUCUAUACGAGGACCGGUACGGCCGCCACUCGAAUGUAUAGCGAAACGCUAUACACAGUGGU [Tryp A SS t2] | 155 | 147 | 152 | 146 | 150 |
| AACGCUGCCUGAGGAUAUAGAAACGAGUGAUGUUCGUGGAACGAGACCAGUGAUGUUGGCCUAUUUCUAGAAGGCAGGCAACCGC [Exclusion FMN B GF 1] | 155 | 121 | 148 | 123 | 125 |
| AACUCUCAGACACUUGAGUGAUGUUCGGGCCGAGGACCGGUACGGCCGCCACUCGGGUCUGAGAGAGGUUAUCAAAGAUAGCCAA [Omei KL Tryp A SS A v9] | 303 | 87.3 | 153 | 141 | 164 |
| AACUCUCAGACAUCUGAGUGAUGUUCAGGCCGAGGACCGGUACGGCCGCCACUCGGGUCUGAGAGAGGUUAUCAAAGAUAGCCAA [Omei KL Tryp A SS A v4] | 570 | 356 | 468 | 390 | 540 |
| AACUCUCAGAUACUUGAGUGAUGUUCAGGCCGAGGACCGGUACGGCCGCCACUCGGGUCUGAGAGAGGUUAUCAAAGAUAGCCAA [Omei KL Tryp A SS A v10] | 266 | 197 | 257 | 329 | 236 |
| AACUCUCAGGCACCUGAGUGAUGUUCAGGCCGAGGACCGGUACGGCCGCCACUCGGGCCUGAGAGAGGUUAUCAAAGAUAGCCAA [Omei KL Tryp A SS A v2] | 561 | 366 | 528 | 277 | 449 |
| AACUGUUGGGAAGGAUAUUAUGGUGGCUAAAUCCAGUGAUGUUGGAAAUCGGUACUCGCCCACCUUUAAGAAGGUCCGUGAAAGA [theeternabot_sameState_KL_FMN_B_6] | 152 | 164 | 151 | 199 | 130 |
| AAGAGUUGACGAAAAGUCAACUCACGAGAAGGAGCGCACGAAAGUGCAGGUAGGUCGCUCAGUCCAGUGAUGUUGGAACAUAAAA [#OpenEnded 7] | 66.2 | 114 | 96.1 | 110 | 73.3 |
| AAGCAGUCCCUUGUUGUCAUCGAAGAUGAACGAGGACCGGUACGGCCGCCACUCGGAGUGAUGUUCCGAUGGCUGCAAAAUAAAA [MatMod 21 - Jieux - Exclusion - Tryptophan A] | 101 | 96.7 | 105 | 101 | 108 |
| AAGCCAGUGAUGUUGGCAAAAUAAACUGAAGGAGCGCGUGAAAACGCAGGUAGGUCGCAGAACCUUGCCAACUAACACGAAAGUG [Ex Arginine A K4 19] | 268 | 246 | 305 | 387 | 287 |
| AAGCCGGUUGCGGCCGCCACUUUUGCGGACCCGGUGCAGUGAUGUUGCGCAUCGCGGGUUGCUUAAAGGACCGGGCACCUCUAAC [theeternabot_sameState_KL_Trp_B_7] | 418 | 359 | 401 | 363 | 327 |
| AAGCUCAGCGUGACUCGAUAAGAGUCACAACGAGGACCGGUACGGCCGCCACUCGAAAUAAGAGAGUGAUGUUCUCGCUGAGCAA [#SwitchBubble 6 #StaticStem #K4Late] | 631 | 344 | 620 | 824 | 548 |
| AAGGCCACGAGAAGGAGCGUGCUAUGGAGUGAUGUUCCAAUGUAGACCUAAGGUCUACAAGCACAGGUAGGUCGCUCGUGGUCAA [Omei KL Arginine B SS A v2] | 102 | 96.9 | 109 | 100 | 103 |
| AAGGCCGCGCGGUGAUGUUUCAUCGCCGCCCGAGGACCGGUACGGCCGCCACUCGGAUAUAUCGCAGUGAUGUUGCUCUAUAUCA [Exclusion - Tryptophan A] | 160 | 151 | 155 | 167 | 203 |
| AAGGUCACUGCUACAGUGAUGUUGUGGGAGCAGGAUAUGCUGAAAAGCAGAAGGGCUCGCUCCAGGUGACCGAAUGAAACAUUCA [whbob_SS_FMNA__2th176] | 1140 | 718 | 1290 | 792 | 1110 |
| AAUAAAAUCACGGCCGCCACUGAAUUAUUGGUAAGUAGUGAUGUUACUUUACAUAUCUAAUUUAACAGGACCGGGUGAAUAUUUA [#17 K4 Tryptophan B Exclusion] | 130 | 93.4 | 113 | 96.6 | 131 |
| AAUAAUAAUAAAUAUAGAUUGAUGAGGAAACGAGGACCGGUACGGCCGCCACUCGAGUGAUGUUCGAGAACCUCAUCAAUCAUAA [AK4.7 Exc Tryptophan A] | 171 | 132 | 166 | 154 | 382 |
| AAUACCUGAGUGAUGUUCAGGGAAUCAGAAGGAGCGUCAAUUAUGACAGGUAGGUCGCUGAAGACAUGUGUGUAUACACAUGUCC [#04 K4 Arginine A Same State] | 259 | 198 | 234 | 275 | 200 |

| Sequence | apparent KD of K4 kissing-loop reporter (input ligand: FMN 200 uM) [nM] | apparent KD of K4 kissing-loop reporter (input ligand: arginine 13.2 mM) [nM] | apparent KD of K4 kissing-loop reporter (input ligand: none) [nM] | apparent KD of K4 kissing-loop reporter [1] [nM] | apparent KD of K4 kissing-loop reporter [2] [nM] |
| --- | --- | --- | --- | --- | --- |
| AAUAGGGAUAGUGAUGUUAUCCCUUAUGAUACCAGUGCCAUCGGACACCCUUGGCAGCAUACGGGCAGUGAUGUUGUCCUUGGUG [Exclusion Theophylline A GF 16] | 106 | 94 | 101 | 94.8 | 93.8 |
| AAUCAAUACAGAAGGAGCGUGACAUUUGCUAUUGUAAUUUUAGCUAGUGAUGUUAGCAUUUCACAGGUAGGUCGCUGUACAUUUA [JR_SSArginiB_Sub010] | 275 | 324 | 354 | 415 | 259 |
| AAUGAGGACACUUGCAACAGUCCUCGAAUACGAGGACCGGUACGGCCGCCACUCGAUAACUUGCAGUGAUGUUGCAAGUAAGAAU [(T)''-(K)'-(T)'-(T1)-(T2)-(K1)-(K2)_Design2] | 227 | 201 | 207 | 258 | 311 |
| AAUUCUCUUUUUGAUACCAGCGAAUCUGAGUGAUGUUCUAAGCCAUACAAUUGAGUAAAUCGCCCUUGGCAGCAAUUCGUGGGUG [theeternabot_exclusion_KL_Theo_B_20] | 898 | 681 | 724 | 921 | 567 |
| AAUUUAUGAUCUGAUACCAGACUUUAUCUUGUUUAUAAGUCAAGUGAUGUUUGACUAUUAGUCCCUUGGCAGCAGUAUUGUUUAA [#17 K4 Theophylline B Same State] | 243 | 268 | 290 | 208 | 239 |
| ACCAUCAAAGAUGGCCAGGACUCAACUGAUACCAGAGUGGAGACACUCCCUUGGCAGCAGGUGAGUGAUGUUCACGAGUCCUGGA [Omel KL Theo A SS B v9] | 1000 | 801 | 1140 | 599 | 740 |
| ACCCGGGCCCGAAAGGGCCCGGGAAGAGAUACCAGCAGCGAAAGCUGCCCUUGGCAGCUCACUUAGUGAUGUUGAGUAUAGGGUA [#22 K4 Theophylline A Same State] | 1100 | 463 | 279 | 185 | 361 |
| ACCUAGUAGACAGGAUAUCACCAUGACAGUGAUGUUGUCAUGCUCGAUUUGAGGAAACUCAGAUCGUGAGAAGGGUCUAACGACU [FMN B SS t7] | 136 | 149 | 170 | 146 | 158 |
| ACGCGCGCGAGUGAUGUUCGGAGCGGCUGGCAGGAUAUGUAGCAAUGCAGAAGGGUCGUGGCGCUCCCUCCUGAAGGAGGGAGCG [#2 Exclusion - FMN A Attempt #25 (HarryS)] | 198 | 307 | 351 | 432 | 347 |
| ACGCGCGCGAGUGAUGUUCGGAGCGGCUGGCAGGAUAUGUAGCAAUGCAGAAGGGUCGUGGCUGCUGGUAGGAAACUACUGGCAG [#2 Exclusion - FMN A Attempt #4 (HarryS)] | 252 | 316 | 424 | 358 | 441 |
| ACGCUGGUGAAUAACACUAGCGAAAAUUCGCGAGGACCGGUACGGCCGCCACUCGCUAACUGCGAGUGAUGUUCGAUAAUAAAAU [Mat - Mod of OpenEnded 3 - D8] | 233 | 67.5 | 165 | 169 | 112 |
| ACGUGCACCAGUGAUGUUGGAAAAUAUGAAGGAGCGGGAGAAAACCCAGGUAGGUCGCAUAAUAGCACGAGCCACGAAAGUGGCA | 191 | 81.4 | 122 | 196 | 107 |
| ACUGAGCAUGCGGCCGCCACUUCAGAACGUCGCCCAGAGGGCGACGCCUCCGCAGUGAUGUUGUGGAGGACCGGGCAUGUUCAGA [Omei KL Tryp B Exc A v5] | 419 | 360 | 355 | 451 | 420 |
| AGACCUCAGUGAUGUUGAGGUAACACUGAUACCAGCGACUUGAUUCGCCCUUGGCAGCAGUCCACCGAGGUAUCUGAUCAGGUCA [#25 K4 Theophylline A Exclusion] | 159 | 158 | 137 | 168 | 140 |
| AGACUACCACACUGUCAAUAGACAGUGAACUAGGAUAUGCUGAUAAGCAGAAGGAGUGAUGUUCCUCGGUAGUCAAUAAAAUAAU [FmnAX 13 C67] | 419 | 255 | 303 | 346 | 235 |
| AGACUACCACACUGUCAAUAGACAGUGUACUAGGAUAUGCUGAUAAGCAGAAGGAGUGAUGUUCCAAGGUAGUCAAUAAAAUAAU [FmnAX 13 U28+A66] | 393 | 213 | 206 | 291 | 206 |
| AGACUACUGAUAGGAUAUAACAUCCUAGUCGUAUACCGAAAGGUAUACGAUUCCCUUCUAGUGAUGUUAGAAGGGUCGGUAGUCA [Omei KL FMN B Exc B v12] | 78.5 | 69.2 | 71.3 | 60.9 | 78.9 |
| AGACUUCACCGAAGGAGCGACGUAGCCUAGUGAUGUUAGGCGCGAGAGAAAUCUCGUAUACGUCAGGUAGGUCGCGGUGAAGUCA [Omei KL Arginine B SS C v4] | 163 | 129 | 152 | 126 | 146 |
| AGAGAGGUGUUUUUUUGAAGUGAGUAAUGGCGAGGACCGGUACGGCCGCCACUCGGGUGAUGUUAGUGAUGUUGAUGUAGUGAUG [yrymullin] | 79.3 | 60.8 | 66.3 | 114 | 65.6 |
| AGAGAUAUAUGAGGAUAUGAGAUAGUUAAUGAGUGAGUUAUAGUGUUGUUUGGUUAGUGAUGUUAUUUAGAAGGCGUGAGUGAUG [immumullin] | 130 | 94.7 | 110 | 119 | 82.5 |
| AGAGAUAUAUGAGGAUAUGGGAUAGUUAAUGAGUUAGUUUUAGUGUUGUUUGGUUAGUGAUGUUAUUUAGAAGGCGUGAGUGAUG [rxxvgmullin] | 106 | 75.8 | 81.7 | 109 | 71.1 |
